{"source": "patent US6306580A", "about": "“Preparation of human papillomavirus E1 having helicase activity and method therefor” (priority 1999, dated 2001)", "molecules": {"B1": {"name": "HPV-11 E1: His-tagged E1 helicase of human papillomavirus type 11, low-salt nuclear extraction, Ni affinity purified (SEQ ID NO.26) (protein)", "chain": "MADDSGTENEGSGCTGWFMVEAIVEHTTGTQISEDEEEEVEDSGYDMVDFIDDRHITQNSVEAQALFNRQEADAHYATVQDLKRKYLGSPYVSPISNVANAVESEISPRLDAIKLTTQPKKVKRRLFETRELTDSGYGYSEVEAATQVEKHGDPENGGDGEERDTGRDIEGEGVEHREAEAVDDSTREHADTSGILELLKCKDIRSTLHGKFKDCFGLSFVDLIRPFKSDRTTCADWVVAGFGIHHSIADAFQKLIEPLSLYAHIQWLTNAWGMVLLVLIRFKVNKSRCTVARTLGTLLNIPENHMLIEPPKIQSGVAALYWFRTGISNASTVIGEAPEWITRQTVIEHSLADSQFKLTEMVQWAYDNDICEESEIAFEYAQRGDFDSNARAFLNSNMQAKYVKDCAIMCRHYKHAEMKKMSIKQWIKYRGTKVDSVGNWKPIVQFLRHQNIEFIPFLSKLKLWLHGTPKKNCIAIVGPPDTGKSCFCMSLIKFLGGTVISYVNSCSHFWLQPLTDAKVALLDDATQPCWTYMDTYMRNLLDGNPMSIDRKHRALTLIKCPPLLVTSNIDISKEEKYKYLHSRVTTFTFPNPFPFDRNGNAVYELSDANWKCFFERLSSSLDIEDSEDEEDGSNSQAFRCVPGSVVRTL", "modifications": "His tag"}, "B2": {"name": "HPV-6a E1: His-tagged E1 helicase of human papillomavirus type 6a purified according to the invention (SEQ ID NO.27) (protein)", "chain": "MADDSGTENEGSGCTGWFMVEAIVQHPTGTQISDDEDEEVEDSGYDMVDFIDDSNITHNSLEAQALFNRQEADTHYATVQDLKRKYLGSPYVSPINTIAEAVESEISPRLDAIKLTRQPKKVKRRLFQTRELTDSGYGYSEVEAGTGTQVEKHGVPENGGDGQEKDTGRDIEGEEHTEAEAPTNSVREHAGTAGILELLKCKDLRAALLGKFKECFGLSFIDLIRPFKSDKTTCLDWVVARFGIHHSISEAFQKLIEPLSLYAHIQWLTNAWGMVLLVLLRFKVNKSRSTVARTLATLLNIPENQMLIEPPKIQSGVAALYWFRTGISNASTVIGEAPEWITRQTVIEHGLADSQFKLTEMVQWAYDNDICEESEIAFEYAQRGDFDSNARAFLNSNMQAKYVKDCATMCRHYKHAEMRKMSIKQWIKHRGSKIEGTGNWKPIVQFLRHQNIEFIPFLTKFKLWLHGTPKKNCIAIVGPPDTGKSYFCMSLISFLGGTVISHVNSSSHFWLQPLVDAKVALLDDATQPCWIYMDTYMRNLLDGNPMSIDRKHKALTLIKCPPLLVTSNIDITKEDKYKYLHTRVTTFTFPNPFPFDRNGNAVYELSNTNWKCFFERLSSSLDIQDSEDEEDGSNSQAFRCVPGTVVRTL", "modifications": "His tag"}}, "key": {"[1]": {"test_system": "partial duplex DNA substrate", "conditions": "Yang, PNAS (1993), assayed at 32°; cited from earlier work"}, "[2]": {"target": "T1, HPV-11 E1 helicase (Human papillomavirus 11, UniProt P04014)", "T1 construct": "made in house; host or cells: SF21 insect cells, recombinant baculovirus (Bac-to-Bac, pFASTBAC1)", "assay": "E1 helicase SPA high-throughput assay, inhibition (IC50 curves)", "format": "biochemical, human papillomavirus type 11", "description": "In this assay, the duplex DNA substrate consists of M13 single-stranded DNA (about 8000 bases) to which is annealed a 19 base oligodeoxynucleotide (see FIG. 6). This partial duplex is extended to 24 bases with the incorporation of [^33 P]-labeled dATP by a reaction with the Klenow fragment of DNA polymerase I. Helicase activity results in the separation of this radiolabeled oligo from the M13 DNA. In the absence of a functional helicase, the double-stranded DNA substrate is stable for several hours at the assay temperature.\nTo detect activity, a second 24-base deoxyoligonucleotide, complementary to the substrate oligo, is added to the reaction mixture in a second step. […]\nIn the third step, streptavidin-coated SPA beads (Amersham Life Science, code TRKQ7030) are added to the mixture. […] Thus radiolabeled oligo annealed to the biotinylated oligo will be detected, whereas unreacted substrate still hybridized to M13 is not in close proximity to the beads and will not be detected.\nIn the presence of an inhibitor, less substrate is unwound, so a lower signal is detected. […] The M13 DNA competes with the labeled M13 substrate and inhibits the signal detected. […]\nAssay buffer, used for all dilutions, consisted of 20 mM MES, pH 7.0, 10% glycerol, 1.0 mM DTT, and 0.05 mM EDTA. […] Sufficient E1 is used to give approximately 20% unwinding (as determined in Example 9). […]"}, "[3]": {"target": "HPV-11 E2 protein (human papillomavirus type 11) (UniProt P04015)", "assay": "E2-dependent E1 DNA binding assay: E1/E2/ori complex with radiolabeled origin probe, captured with K72 antiserum on protein A-SPA beads, scintillation counting"}, "[4]": {"test_system": "partial duplex DNA substrate", "assay": "Helicase specific activity (unwinding of partial duplex DNA), this work", "format": "biochemical", "conditions": "37°, enzyme concentration greater than substrate", "experimental": "The substrate for the analytical helicase assay consisted of a […] oligonucleotide (GTAAAACGACCAGTGCCAAGC) (SEQ ID NO. 11) end-labeled using [^33 P]ATP and polynucleotide kinase, annealed to M13mp18. Combined helicase/ATPase reactions contained 800 or 1600 ng of E1, 2 mM MgCl2, 1 mM ATP, and 1 μM helicase substrate (concentration in nucleotides) in a total volume of 80 μL of helicase assay buffer (20 mM MES, pH 7.0, 1 mM DTT, 0.05 mM EDTA, 10% glycerol). Reactions were incubated for 2 h at 37° and then placed on ice. […]\nHelicase activity was quantitated as follows:\nA separate reaction mixture, containing no enzyme was heated to 95° for 10 min., and the resulting free substrate oligonucleotide (completely denatured) was detected as described for reaction mixtures. […] Quantitation of unwinding is calculated relative to the boiled sample with background subtracted.\nIn all cases the enzyme concentration was greater than the substrate concentration and the substrate was partial duplex DNA. […] The SV-40 TAg was also assessed in the literature and V of 50 and 80 % unwinding/μm protein/min were obtained from these groups respectively (Goetz, JBC (1988); Stahl, EMBO (1986)). […]"}}, "note": "Where two headings read alike, the source gives them in different places."}
{"molecule": "BPV E1: bovine papillomavirus E1 helicase, literature value (Yang, PNAS 1993)", "values": [{"measurement": "Helicase Activity V (% unwinding/μM protein/min)", "setting": "[1]", "value": "2.9 % unwinding/μM protein/min"}]}
{"molecule": "CC[n+]1c(-c2ccccc2)c2cc(N)ccc2c2ccc(N)cc21", "note": "[ethidium bromide]", "values": [{"measurement": "IC50", "setting": "[2]", "value": "~4", "unit": "µM"}]}
{"molecule": "HPV-11 His-E1 protein (wild type) (enzyme)", "values": [{"measurement": "signal over background (fold)", "setting": "[3]", "value": "20 to 30", "unit": "fold"}]}
{"molecule": "B1", "values": [{"measurement": "Helicase Activity V (% unwinding/μM protein/min)", "setting": "[4]", "value": "2.5 % unwinding/μM protein/min"}]}
{"molecule": "B2", "values": [{"measurement": "Helicase Activity V (% unwinding/μM protein/min)", "setting": "[4]", "value": "2.3 % unwinding/μM protein/min"}]}
